# Measured values published in publication PMC3777173.
# Assays:
# [1] = molecular target: EDAvidin (fusion protein between the extra domain A from fibronectin and streptavidin); assay: SDS-PAGE of the sample not boiled against boiled; purified EDAvidin, nondenatured against denatured (boiled), Coomassie blue
# biotinylated ovalbumin = biotinylated ovalbumin (UniProt P01012); assay: SPR; ProteOn XPR36; OVA-biot covalently immobilised on a GLC chip (sulfo-NHS/EDC); EDAvidin in 2-fold dilutions from 100 nM, then (after regeneration with 2 μM biotin) streptavidin; PBS, 0.005% Tween 20, pH 7.4; 30 μL/min; referenced against nonbiotinylated OVA; Langmuir model
# UniProt P01012, sequence (P01012 whole entry): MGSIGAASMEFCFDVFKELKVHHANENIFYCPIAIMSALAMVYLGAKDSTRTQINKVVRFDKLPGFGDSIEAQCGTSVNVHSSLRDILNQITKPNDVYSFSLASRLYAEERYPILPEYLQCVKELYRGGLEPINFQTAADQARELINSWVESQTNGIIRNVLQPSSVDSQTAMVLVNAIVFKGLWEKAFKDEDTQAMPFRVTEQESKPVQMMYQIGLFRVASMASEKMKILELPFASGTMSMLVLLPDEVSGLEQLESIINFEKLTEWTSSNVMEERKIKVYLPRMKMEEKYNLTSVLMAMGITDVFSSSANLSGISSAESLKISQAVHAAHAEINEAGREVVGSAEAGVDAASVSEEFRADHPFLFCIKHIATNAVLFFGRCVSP
substance,measurement,setting,value
EDAvidin (fusion protein between the extra domain A from fibronectin and streptavidin),stoichiometry N,[1],4
same,Kd,biotinylated ovalbumin,0.023 pM
